Reference: the DeepSol protein solubility set

experiment: soluble on expression in E. coli; label from the status in PepcDB or PDB records

**Q.** With “MTEPWIAFPPEVHSAMLNYGAGVGPMLISATQNGELSAQYAEAASEVEELLGVVASEGWQGQAAEAFVAAYMPFLAWLIQASADCVEMAAQQHVVIEAYTAAVELMPTQVELAANQIKLAVLVATNFFGINTIPIAINEAEYVEMWVRAATTMATYSTVSRSALSAMPHTSPPPLILKSDELLPDTGEDSDEDGHNHGGHSHGGHARMIDNFFAEILRGVSAGRIVWDPVNGTLNGLDYDDYVYPGHAIWWLARGLEFFQDGEQFGELLFTNPTGAFQFLLYVVVVDLPTHIAQIATWLGQYPQLLSAALTGVIAHLGAITGLAGLSGLSAIPSAAIPAVVPELTPVAAAPPMLAVAGVGPAVAAPGMLPASAPAPAAAAGATAAGPTPPATGFGGFPPYLVGGGGPGIGFGSGQSAHAKAAASDSAAAESAAQASARAQARAARRGRSAAKARGHRDEFVTMDMGFDAAAPAPEHQPGARASDCGAGPIGFAGTVRKEAVVKAAGLTTLAGDDFGGGPTMPMMPGTWTHDQGVFDEHR” as the sequence, how does the “soluble on expression in E. coli” value read?
**A.** not soluble

**Q.** For “MTSSQLVKMRLELRRGVLVLAVLGLLKQPHYGYSLRKQLQDGGIDIDEGTLYPLVRRLAEQGLLDSEWRQAEGRERRYYQLSSSGAELLSQLTEEWQQLNGALAFLLGQVTDENAEEN”, which “soluble on expression in E. coli” value is on record?
**A.** not soluble

**Q.** For “MGSDKIHHHHHHMITPQDRLIKALNGQVIDRSPCICPGGMMNMATTEIMQRVGSHWPEAHKKPQDMARLALGVCHLTGMENLGVPFCMTVEAEAMGAKVNLGSLANEPRVAEYPLMKLEDWETLSGINPGEGRAGIVAEAVSYLTSSKTELPVIANLTGPISLASSLIEPMVFFKAMGKKPELVHEFLYFVTDNLIVFGRSMLQAGAQIINIADPGGTEEILGPRHFAEFALPYINRILNELQGEYQASMVHICGRLQSIFTEINQLATNAISIDSTTSISKLRSALREKVVVGNISTYLLQNAQPGRVKATGFNCLRKGITILSPACGISPATPLANLQAMVSAVHDFDYQNREVSSLG”, which “soluble on expression in E. coli” value is on record?
**A.** not soluble

**Q.** With “MNQLCRAVPSLRSAVRLASSGRLYTKKHEWVLVENGVGTVGITDFATEQLGDVVFIELPDEGTEISKGDSTGAVESVKAASDIYAPISGTVTQKNVKLEEEAGLINKSPFEKGWLYKLKVKSADELEKLLNEEQYAKFKKDEEAAH” as the sequence, how does the “soluble on expression in E. coli” value read?
**A.** not soluble

**Q.** With “MGSDKIHHHHHHMSSLQISQGTFRLSDTKTLKIDHLSVAAGESWAFVGSNGSGKSALARALAGDLPLLSGQRESHFSRVTRLSFEQLQKLVSDEWQRNNTDLLSPGEEDTGRTTAEIIQDEVKDPARCARLAEQFGISALLDRRFKYLSTGETRKTLLCQALMTDPQLLILDEPFDGLDVNSRQQLAALLADLHSAGITLVLVLNRFDEIPEFVQFAGVLADCTLSETGEKSSLLQQALVAQLAHSEKLDGITLPEPDVPPARHALADSAPRIVLNDGVVSYNDRPVINHLSWTVNPGEHWQIVGPNGAGKSTLLSLVTGDHPQGYSNDLTLFGRRRGSGETIWDIKKHIGYVSSSLHLDYRVSTNVRNVILSGYFDSIGIYQAVSDKQHKLVQQWLDILGIDKRTADAPFHSLSWGQQRLALIVRALVKHPTLLILDEPLQGLDPLNRQLVRRFVDVLIGEGATQLLFVSHHAEDAPDCITHRLAFVPSGDGYTYQLGPVA” as the sequence, how does the “soluble on expression in E. coli” value read?
**A.** not soluble

**Q.** With “MKREQVMGEGNYSLASHHIFGVDNANKMLFSPLDNAKNGMKIYLTDKNKVYTYEIREVKRVTPDRVDEVDDRDGVNEITLVTCEDLAATERIIVKGDLKETKDYSQTSNEILTAFNQPYKQFY” as the sequence, how does the “soluble on expression in E. coli” value read?
**A.** not soluble

**Q.** With “MGSDKIHHHHHHMSRRHYNLPPLTTLTAFEAAARHLSFKDAAKELSVTPGAVSHQVKALEGELGVALFRRKHRGVDLTVPGQTLYDTLAGSLTRISQSLQSIRDQSSAGVVTVGSTTAMAAMWLSPAVIRFWRDHPEININQVVRDRAFTTSAELDLYIWYGREKDQRLDQFPLYRDRLLPVAAPERAAELAGADLDVLASQRLIHLEGDDISWTKWHDWFRQLGYSGPVASGIRVNNYSIALQAARDGAGLTLGWERLISPLITQGDLAIIGPHVLPAPERFFLVSKPDEELTPSARLLRDWIIEEASQITDEPC” as the sequence, how does the “soluble on expression in E. coli” value read?
**A.** not soluble

**Q.** For “MSLSSTNDTIRRLQRDLLFLQNELRFEKFVRQQHLQNIGKLHREHILDMAVESERQKLLLTNKRYKAQIELLNSEIDKHRSESQAALNRRVKWENDFNNKIKALREEKKAWKSEESELKSSIESLISQLESIRNSQIDIAFSKNQLELKLQLYETKLKEYEQHLSCVNISKKQVSSSSDTSFGNTKMDSSMILSNSEAVSDEQERELIESEKHRMKLESENLHLQANIELLKKDLEAINVVYEAKIFDLEKRLSSEANAPELHNPVNLNYDAQLSKISEIKENYDELLTRYRELEGKFLESQAEVEELKNFQKPLVDTGSSIHSSPGLQQSKFIIRNDSLHPKVGPPRRQSTDTSRSTFRQYEGHHHHHH”, which “soluble on expression in E. coli” value is on record?
**A.** soluble

**Q.** With “SDPRRNFQPGGYDSRNTFTSGSFGPPDFGESDEAELVSVSWNQDYSCFAAGTSHGFRIYNCEPFKETFRRELKDGGFKIVEMLFRSNILALVGGGPNSQYPSNKVLIWDDHQGRCISEFTFRSEIRAVKLRRDRIVVVLEHKIYVYNFMDLRLLHQIENMANPRGLCCLSHHMNTSVLACPGIRRGEVRVEHFGLNMVQIINAHDSNIACMTLTLDGLLLATASTKGTLIRIFNTMDGTRLQEVRRGVDRADIYSIALSPNVQWLAVSSDKGTVHIFSLRVRVIGEDAYSTEHETSSNSLQPLVSPASGANPGSSLSFLRGVLPKYFSSEWSFSQFHVPEVTQYFAAFGAQNTIAIIGLDGSFYRCNFDPVNGGEMTQLEHFHFLKQDSPR” as the sequence, how does the “soluble on expression in E. coli” value read?
**A.** soluble

**Q.** With “DIVEAQPSHPDKLLEVPLGRDISGMVQTADLSKMPHLLIAGSTGSGKSVAINGIITGILMQAKPHEVKLMMIDPKMVELNVYNGIPHLLTPVVTNPRKAAQALQKVVQEMEFRYEKFAATGVRNITGYNQLIQQKNAEDGENRPILPFIVVIVDELADLMMVASNEVEDAIIRLAQMARAAGIHMILATQRPSV” as the sequence, how does the “soluble on expression in E. coli” value read?
**A.** not soluble

**Q.** For “MKVVAVGGGTGLSTLLKGLKNIDSFEITAVVSVTDEGGSSGKLRKELNVPPPGDVRNNIVALAKDEDLLAKLMSYRFSEGSFKGHSLGNLIIAALTKIEGSFSEAIRILERVLAIKGRVLPVSEDHARLVARFEDGEEVIGETNIVRKGGKIVEVRLDRPIDALPEVLEAIERADIIIFGPGSLYTSIITNVLVNGVKDAIKKSKAKKIYVCNLMTQPGETTGYRVSDHVKELERYLEQSVDFVLVNTRKPSEEVLERYRKEGSDFVEIDAENIQNTILAEPFLVEIVDPSDGQRKIRHDSVKLADVIERISRW”, which “soluble on expression in E. coli” value is on record?
**A.** soluble

**Q.** With “YPDDLVIGNLSRRGFLKGVGATGVLLVAANWGWRDALAAEKKAFGADAMPHGWVDNPKIYVSIDRDGTVGIVCNRSEMGQGVRTSLAMVVADELEADWSRVKVIQAPGDEARYGNQDTDGSRSMRHWFEPMRRCGAAARQMLEQAAANQWKVPLGECRAEQNKVLHAPSGRSLSFGELAEAAAGLEVPARDKLLLKKPEQFRYIGKDVARAIDGADIVNGRAGFGFDARFDDMLYAVVARPPVYGGKLKRYDAAAALKVPGVVKVIEIEGRPIPSEFQPLGGVAVVAQNTWAAIKGREALVVEWDAGVNGGYDSVAYRKQLEEAARKPGKVVRDSGDAAALFAKGGDIVEAEYYLPHLAQAPMEPPVSTAWYKDGACEVWAPTQAPQVTRERIAERLKLPFDKVTVNVTLLGGGFGRKSKPDFVLEAAILAKAFPGRHLRVQWTREDDLHFSYFHTVSVERLQAVLGADGLPQAWLHRSVAPSITALFGPDSKHQGAFELGMGLTNLPFAIPNVRLENPEAPAHTRVGWFRSVSNIPHAFAIQSFVGELAAKAGQDPKDYLLKLLGPARRIDTAELGDSWNYGESPERYPLDVGRLRGVIEEAARQSGWGGELPRGRARGIAAHYSFVTYVAVVIEVEVKDDGALLVHKATIAADCGPQINPERIRSQLEGACVMGLGLAALGEISFKDGKVQQDNFHQYELARMPLAPKAVSVHLLKPDGDLPLGGVGEPGVPPIAPALCNAIFAATGKRIRELPI” as the sequence, how does the “soluble on expression in E. coli” value read?
**A.** not soluble

**Q.** Which “soluble on expression in E. coli” value does the source give for “GSHMGQLGGEEWTRHGSFVNKPTRGWLHPNDKVMGPGVSYLVRYMGCVEVLQSMRALDFNTRTQVTREAISLVCEAVPGAKGATRRRKPCSRPLSSILGRSNLKFAGMPITLTVSTSSLNLMAADCKQIIANHHMQSISFASGGDPDTAEYVAYVAKDPVNQRACHILECPEGLAQDVISTIGQAFELRFKQYLR” here?
**A.** soluble

**Q.** For “MQREKVDVLVIGAGPAGTVAASLVNKSGFKVKIVEKQKFPRFVIGESLLPRCMEHLDEAGFLDAVKAQGFQQKFGAKFVRGKEIADFNFSDQFSNGWNWTWQVPRGNFDKTLADEAARQGVDVEYEVGVTDIKFFGTDSVTTIEDINGNKREIEARFIIDASGYGRVIPRMFGLDKPSGFESRRTLFTHIKDVKRPVAAEMEGNRITAVVHKPKVWIWVIPFSNGNTSVGFVGEPSYFDEYTGTPEERMRAMIANEGHIAERFKSEEFLFEPRTIEGYAISASKLYGDGFVLTGNATEFLDPIFSSGATFAMESGSKGGKLAVQFLKGEEVNWEKDFVEHMMQGIDTFRSFVTGWYDGTLHAVFFAKNPDPDHKRMICSVLAGYVWDKNNPFVKKHNTILKTLAKVIQMGEEALEHHHHHH”, which “soluble on expression in E. coli” value is on record?
**A.** soluble

**Q.** For “MDFYYPNLNNDMWRIVGLLFFGDKDHFLNDTRKAFCREQIIDFLNEKGIALFDTASSIRRLQDNASDKFLEVVQPTDIAALLRQLPECRAIVTTGQKATDTLRAQLEVEEPKVGDYAEFVFEGRAMRLYRMPSSSRAYPLALDKKAAAYRIMYQDLQMVILEHHHHHH”, which “soluble on expression in E. coli” value is on record?
**A.** soluble

**Q.** For “MSLADPNESTFARIRRTKKMRIGAVGGGAPYYMKDLASGQWKGFYVDIAKALADDMEAELEITETTWGNSVLDLQSNKIDIFFGLNPTPKRALVVDFSVPVFNNAFGILCKKDFKPKTWAELNSPDVKIAVDQGSSHDQVVSRLIPKAQISRLKTADDATAALQTGRVDAQCLITMLSLTVLKKNPSLGQFVLPTPIFATTSNAGFRRETDKTWRDYVNTWIDFNKGLGFIRNAIITNMELVGVTEADIPPGVSLEGHHHHHH”, which “soluble on expression in E. coli” value is on record?
**A.** soluble

**Q.** Which “soluble on expression in E. coli” value does the source give for “KVLKIPREKIIEKGFTDPREYFASIEVDGGRPPKPGEFRDILVETVREVMGVEVVEAGLSKEEKIIWDRYKEMLTSSRFKMRRSTRLFKASMPPGTRYGFAQIKYRKLVQASVAVDSEGIIRAAMITGDFQLIPADADEEIVKAILGFKHSQYGEAADRVRRLVDERGIMIIGASAEEFIKPV” here?
**A.** soluble

**Q.** For “MSLMKNMARKNQKAPWEEEEEIIWVSRTELKNDMLALQKLGEELVELKPSALAKFPLPEDLAEAIKDAQRFKNEARRRQLQYIGKLMRHIDPEPLQAALDKLRNKHSQTTALLHKLEQLRDRIVAEGDSAIEVAMEQYPEADRQRLRLLARQASKEKAGNKPPKSSREIFQLLKEAMLAKQEIEEESEDDLDSAEEGHHHHHH”, which “soluble on expression in E. coli” value is on record?
**A.** soluble

**Q.** With “MVSFTKDQIADIIRKVGDGTSPEALESAVRNVLAKLQSEGLSAPASQGGKLDASSYPLGIKRKDLVKSATGLGLDDITIEKVVSGEIQFDDIKTRPETLAYQNEIAKSVNRPNLANNLARAGEMTRIPDARLLEMYNFLRPYRAAKQEMISMAEELEQKYQAPACAKLVREAADVYEKNNRLKGDR” as the sequence, how does the “soluble on expression in E. coli” value read?
**A.** not soluble

**Q.** Which “soluble on expression in E. coli” value does the source give for “MGSDKIHHHHHHMADMTDQLPEVRKSHPYVMYEMMKDIPNGIDRTLSSMQNADLSFIGDDLIFLGNGTAYHSAYVGSQILDRVSKRHAVVQAYEYLNYMQSNAATIAISHTGKTKSTVDAVIKARKTAKTAGITHYADSPLYNSVDYPIAIADEDKSLCNTKAFFNNAFASLYIADYYGNLSYDMKNLRSEIAKHVGKDDPEMRSAAEELDQIDDIFVLGSGFNFPVAREAAQKIKEATHIHAEGIEFEEFNHGCTAVMDENTLVILIEGEKDRARGDQIARASRYVGSKTLAINGVGDISVYNDPQDDLSAAFLNTLDLYYLAYYLAVRRNINPDMLRFEDRRYRDYDSVVFPPGEH” here?
**A.** not soluble
